Results published in paper PMC3159028 (Journal of molecular biology, 2011).
Like-named read-outs stand apart in the source and are kept apart here.

B1: mouse NudC-like 2 protein (NudCL2), full length (natural protein, UniProt Q9CQ48 1-157, looked up)
chain: MSAPFEERSGVVPCGTPWGQWYQTLEEVFIEVQVPPGTRAQDIQCGLQSRHVALAVGGREILKGKLFDSTIADEGTWTLEDRKMVRIVLTKTKRDAANCWTSLLESEYAADPWVQDQMQRKLTLERFQKENPGFDFSGAEISGNYTKGGPDFSNLEK
B2: hNudC^1–141, N-terminal fragment of human NudC (dimerization domain) (domain or fragment)
chain: not shown
B3: human NudC, full length (NudC^1–331) (natural protein)
chain: not shown
B4: human NudC-like protein (NudCL), full length (natural protein, UniProt Q8IVD9 1-361, looked up)
chain: METGAAELYDQALLGILQHVGNVQDFLRVLFGFLYRKTDFYRLLRHPSDRMGFPPGAAQALVLQVFKTFDHMARQDDEKRRQELEEKIRRKEEEEAKTVSAAAAEKEPVPVPVQEIEIDSTTELDGHQEVEKVQPPGPVKEMAHGSQEAEAPGAVAGAAEVPREPPILPRIQEQFQKNPDSYNGAVRENYTWSQDYTDLEVRVPVPKHVVKGKQVSVALSSSSIRVAMLEENGERVLMEGKLTHKINTESSLWSLEPGKCVLVNLSKVGEYWWNAILEGEEPIDIDKINKERSMATVDEEEQAVLDRLTFDYHQKLQGKPQSHELKVHEMLKKGWDAEGSPFRGQRFDPAMFNISPGAVQF

What was measured:
[1] = biological target: the molecule itself; assay: SEC
[2] = biological target: the molecule itself; assay: SEC; remark: listed apart in the source

Protein | stoichiometry N [1] | stoichiometry N [2]
B1 | 2 | 
B2 |  | 2
B3 | 2 | 
B4 | 2 | 
